Experimental data published in patent US20250051465A1.

What was measured:
[1] = biological target: extracellular domain of human LEPR, GPI-anchored on HEK293 cells (HEK293/hLEPR-GPI) (human); test: FACS, HEK293/hLEPR-GPI
[2] = biological target: full length human LEPR on cells (human) (UniProt P48357); test: FACS, HEK293/Stat3-luc/hLEPR-FL
[3] = biological target: extracellular domain of human LEPR, GPI-anchored on HEK293 cells (HEK293/hLEPR-GPI) (human); test: FACS, HEK293/hLEPR-GPI, 1 µM Leptin
[4] = biological target: extracellular domain of human LEPR, GPI-anchored on HEK293 cells (HEK293/hLEPR-GPI) (human); test: FACS, HEK293/hLEPR-GPI, no added Leptin
[5] = biological target: Macaca fascicularis LEPR extracellular domain expressed with a C-terminal myc-myc-hexahistidine tag (mfLEPR.mmh) (Macaca fascicularis); test: SPR, captured mAb, 25C
[6] = biological target: extracellular domain of human LEPR, GPI-anchored on HEK293 cells (HEK293/hLEPR-GPI) (human); test: FACS, HEK293/hLEPR-GPI, 70 nM Ab
[7] = biological target: full length human LEPR on cells (human) (UniProt P48357); test: FACS, HEK293/Stat3-luc/hLEPR-FL, 70 nM Ab

Sequence of full length human LEPR on cells (human) (P48357 22-1165): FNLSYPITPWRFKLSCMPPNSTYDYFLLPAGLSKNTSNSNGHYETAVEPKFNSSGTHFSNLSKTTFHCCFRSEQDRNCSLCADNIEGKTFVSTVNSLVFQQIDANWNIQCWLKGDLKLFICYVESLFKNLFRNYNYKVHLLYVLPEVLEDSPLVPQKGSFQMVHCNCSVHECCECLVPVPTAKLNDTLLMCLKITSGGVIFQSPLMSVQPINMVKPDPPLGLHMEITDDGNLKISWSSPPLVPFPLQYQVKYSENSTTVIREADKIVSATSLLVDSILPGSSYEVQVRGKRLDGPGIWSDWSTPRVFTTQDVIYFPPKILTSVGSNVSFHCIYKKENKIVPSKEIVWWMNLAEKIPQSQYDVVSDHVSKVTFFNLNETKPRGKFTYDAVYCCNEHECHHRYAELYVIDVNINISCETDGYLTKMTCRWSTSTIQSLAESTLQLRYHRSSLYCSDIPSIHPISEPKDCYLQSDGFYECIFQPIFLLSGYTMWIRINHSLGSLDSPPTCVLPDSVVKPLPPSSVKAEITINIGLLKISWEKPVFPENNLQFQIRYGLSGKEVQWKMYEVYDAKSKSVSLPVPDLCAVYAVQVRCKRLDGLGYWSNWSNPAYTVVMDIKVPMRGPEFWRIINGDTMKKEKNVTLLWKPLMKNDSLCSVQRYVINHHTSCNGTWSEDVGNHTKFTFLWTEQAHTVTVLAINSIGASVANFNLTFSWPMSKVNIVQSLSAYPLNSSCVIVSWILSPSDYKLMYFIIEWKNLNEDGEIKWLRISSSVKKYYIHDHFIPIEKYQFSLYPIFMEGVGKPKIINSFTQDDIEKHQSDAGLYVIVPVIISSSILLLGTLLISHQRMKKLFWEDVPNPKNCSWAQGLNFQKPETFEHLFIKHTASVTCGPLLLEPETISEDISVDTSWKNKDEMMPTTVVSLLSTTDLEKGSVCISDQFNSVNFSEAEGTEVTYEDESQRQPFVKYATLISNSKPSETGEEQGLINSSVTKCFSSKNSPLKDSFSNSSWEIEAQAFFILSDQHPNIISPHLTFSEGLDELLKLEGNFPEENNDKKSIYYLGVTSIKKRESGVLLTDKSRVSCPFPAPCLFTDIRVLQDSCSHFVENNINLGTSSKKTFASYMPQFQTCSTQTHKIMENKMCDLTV
Sequence of Macaca fascicularis LEPR extracellular domain expressed with a C-terminal myc-myc-hexahistidine tag (mfLEPR.mmh) (Macaca fascicularis) (Q9MYL0 other isoform, or with tags, fused parts or gaps): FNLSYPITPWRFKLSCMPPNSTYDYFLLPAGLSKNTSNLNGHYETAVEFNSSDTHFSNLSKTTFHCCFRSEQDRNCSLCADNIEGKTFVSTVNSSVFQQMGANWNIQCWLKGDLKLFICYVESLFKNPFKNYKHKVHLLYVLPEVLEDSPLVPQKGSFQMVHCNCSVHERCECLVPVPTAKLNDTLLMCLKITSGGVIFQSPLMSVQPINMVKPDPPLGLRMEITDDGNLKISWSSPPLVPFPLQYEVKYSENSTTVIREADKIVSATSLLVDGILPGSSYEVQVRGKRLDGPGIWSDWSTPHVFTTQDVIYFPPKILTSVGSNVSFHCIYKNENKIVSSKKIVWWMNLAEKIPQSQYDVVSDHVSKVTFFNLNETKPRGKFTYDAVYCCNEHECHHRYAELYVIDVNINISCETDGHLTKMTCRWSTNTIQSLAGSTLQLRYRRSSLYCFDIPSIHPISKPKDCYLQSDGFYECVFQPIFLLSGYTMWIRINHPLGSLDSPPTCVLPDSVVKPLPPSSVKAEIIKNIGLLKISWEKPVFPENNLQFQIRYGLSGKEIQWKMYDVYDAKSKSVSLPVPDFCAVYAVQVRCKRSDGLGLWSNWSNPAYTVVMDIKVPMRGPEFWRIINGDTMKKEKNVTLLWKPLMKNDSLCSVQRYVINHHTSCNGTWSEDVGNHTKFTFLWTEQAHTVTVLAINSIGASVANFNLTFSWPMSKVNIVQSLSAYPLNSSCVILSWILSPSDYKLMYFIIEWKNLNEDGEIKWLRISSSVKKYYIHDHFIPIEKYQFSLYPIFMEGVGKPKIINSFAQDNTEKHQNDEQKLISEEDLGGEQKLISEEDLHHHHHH

| Substance | Binding Ratio (fold over unstained) [1] | Binding Ratio (fold over unstained) [2] | Binding Ratio (fold over unstained) [3] | Binding Ratio (fold over unstained) [4] | 100 nM mfLEP.MMH Bound (RU) [5] | Binding Ratio (fold over unstained) [6] | Binding Ratio (fold over unstained) [7] |
| --- | --- | --- | --- | --- | --- | --- | --- |
| Alexa Fluor-647 conjugated secondary antibody (Jackson ImmunoResearch Laboratories Inc., #109-547-003) | 1 | 1 | 3 | 3 | – | – | – |
| Isotype Control mAb (antibody) | – | – | – | – | 0 RU | 2 | 2 |
